T1: GUN1 (132-918) (Arabidopsis thaliana, UniProt Q9SIC9 132-918)
T1 sequence: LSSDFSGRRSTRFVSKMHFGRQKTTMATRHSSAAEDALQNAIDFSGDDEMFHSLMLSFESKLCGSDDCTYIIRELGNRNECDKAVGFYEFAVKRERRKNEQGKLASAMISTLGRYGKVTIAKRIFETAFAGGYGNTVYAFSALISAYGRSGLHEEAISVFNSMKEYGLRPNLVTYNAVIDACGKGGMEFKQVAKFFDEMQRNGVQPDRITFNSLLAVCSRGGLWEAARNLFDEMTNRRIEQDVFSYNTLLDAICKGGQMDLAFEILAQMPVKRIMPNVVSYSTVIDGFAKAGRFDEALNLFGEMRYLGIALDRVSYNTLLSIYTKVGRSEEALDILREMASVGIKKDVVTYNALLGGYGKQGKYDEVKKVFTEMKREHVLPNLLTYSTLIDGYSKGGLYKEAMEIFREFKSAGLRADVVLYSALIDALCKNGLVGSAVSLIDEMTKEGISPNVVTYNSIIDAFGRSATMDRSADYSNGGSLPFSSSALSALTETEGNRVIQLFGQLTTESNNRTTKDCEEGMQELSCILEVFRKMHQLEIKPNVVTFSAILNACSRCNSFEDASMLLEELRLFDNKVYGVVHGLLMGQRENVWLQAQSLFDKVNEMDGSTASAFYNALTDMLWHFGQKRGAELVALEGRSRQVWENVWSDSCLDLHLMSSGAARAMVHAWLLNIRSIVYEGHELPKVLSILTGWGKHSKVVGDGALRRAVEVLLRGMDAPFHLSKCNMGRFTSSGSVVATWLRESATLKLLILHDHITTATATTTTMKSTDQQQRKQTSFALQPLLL

For the series, the target named is T1, GUN1 (132-918). In words: EMSA.
On to GGAAAUCCGUCGAUAUCUCU (ssRNA) [RNA1 (psbD BLRP 5'-UTR)], for which the binding result is on record as “binds”.
Under GGACCUCCUUCUCUAUCUCU (ssRNA) [RNA2] stands “no binding”; under GGACCGAAUGAUCUAUCUCU (ssRNA) [RNA3], “no binding”.
